Patent US20260167699A1 (Chugai, published 2026)

Tests used:
Assay in all cases: SPR; % of GpH7-A5/GpH7-B3/GpL16-k0
[1] = molecular target: T1, FcγRIIa(R) extracellular domain with C-terminal His tag (human, UniProt P12318 34-217)
T1 construct: extracellular domain; R131 allotype; also called 2aR; CD32
T1 sequence: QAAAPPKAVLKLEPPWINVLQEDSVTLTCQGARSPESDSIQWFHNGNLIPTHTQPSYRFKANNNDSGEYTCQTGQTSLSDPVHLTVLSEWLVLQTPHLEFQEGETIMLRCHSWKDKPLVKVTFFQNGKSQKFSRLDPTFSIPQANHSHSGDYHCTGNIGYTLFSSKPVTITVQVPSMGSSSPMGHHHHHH

[2] = molecular target: T2, FcγRIIa(H) extracellular domain with C-terminal His tag (human, UniProt P12318 34-217)
T2 construct: extracellular domain; H131 allotype; also called 2aH; CD32
T2 sequence: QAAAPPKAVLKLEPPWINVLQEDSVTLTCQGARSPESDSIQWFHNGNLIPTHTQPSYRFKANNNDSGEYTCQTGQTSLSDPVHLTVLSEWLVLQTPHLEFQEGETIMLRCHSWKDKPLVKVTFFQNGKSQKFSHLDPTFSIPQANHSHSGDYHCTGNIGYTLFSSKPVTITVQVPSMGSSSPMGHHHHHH

[3] = molecular target: T3, FcγRIIIa extracellular domain with C-terminal His tag (human, UniProt P08637 17-208)
T3 construct: extracellular domain; also called 3a; CD16
T3 sequence (P08637 other isoform, or with tags, fused parts or gaps): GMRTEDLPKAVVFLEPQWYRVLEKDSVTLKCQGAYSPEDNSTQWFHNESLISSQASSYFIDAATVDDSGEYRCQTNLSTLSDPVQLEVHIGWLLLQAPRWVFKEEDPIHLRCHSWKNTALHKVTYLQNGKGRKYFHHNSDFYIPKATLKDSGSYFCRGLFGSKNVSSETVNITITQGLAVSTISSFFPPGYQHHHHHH

[4] = molecular target: T4, FcγRIIb extracellular domain with C-terminal His tag (human, UniProt P31994 43-217)
T4 construct: extracellular domain; also called 2b; CD32
T4 sequence: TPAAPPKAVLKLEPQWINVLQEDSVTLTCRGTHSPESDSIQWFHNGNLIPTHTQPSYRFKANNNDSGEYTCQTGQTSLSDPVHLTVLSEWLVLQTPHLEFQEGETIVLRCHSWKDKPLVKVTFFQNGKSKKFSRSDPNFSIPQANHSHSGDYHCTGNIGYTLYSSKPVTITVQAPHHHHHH

[5] = molecular target: T5, FcγRIa extracellular domain with C-terminal His tag (human, UniProt P12314 16-292)
T5 construct: extracellular domain; also called 1a; CD64
T5 sequence (P12314 other isoform, or with tags, fused parts or gaps): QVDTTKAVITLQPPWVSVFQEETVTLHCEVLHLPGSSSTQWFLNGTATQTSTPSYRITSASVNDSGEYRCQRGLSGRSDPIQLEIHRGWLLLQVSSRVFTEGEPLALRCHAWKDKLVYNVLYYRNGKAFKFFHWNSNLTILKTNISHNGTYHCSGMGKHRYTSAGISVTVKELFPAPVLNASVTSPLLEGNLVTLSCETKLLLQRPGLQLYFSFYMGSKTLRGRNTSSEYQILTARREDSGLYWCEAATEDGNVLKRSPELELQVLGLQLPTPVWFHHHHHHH

Row | Binder | He/Con 2aR [1] [%] | He/Con 2aH [2] [%] | He/Con 3a [3] [%] | He/Con 2b [4] [%] | He/Con 1a [5] [%]
1 | GpH7-A5/GpH7-B3 variant I332_09D/GpL16-k0 (antibody, human IgG1, kappa, heterodimerized IgG1 (He Ab), mutation in one H chain only; also called He Ab) heavy 1: not shown heavy 2: not shown light: DIVMTQSPLSLPVTPGEPASISCQASESLVHSNRNTYLHWYLQKPGQSPQLLIYKVSNRFSGVPDRFSGSGSGTDFTLKISRVEAEDVGVYYCSQNTHVPPTFGQGTKVEIERTVAAPSVFIFPPSDEQLKSGTASVVCLLNNFYPREAKVQWKVDNALQSGNSQESVTEQDSKDSTYSLSSTLTLSKADYEKHKVYACEVTHQGLSSPVTKSFNRGEC | 118 | 122 | 189 | 163 | 106
2 | GpH7-A5/GpH7-B3 variant I332_20W/GpL16-k0 (antibody, human IgG1, kappa, heterodimerized IgG1 (He Ab), mutation in one H chain only; also called He Ab) heavy 1: not shown heavy 2: not shown light: DIVMTQSPLSLPVTPGEPASISCQASESLVHSNRNTYLHWYLQKPGQSPQLLIYKVSNRFSGVPDRFSGSGSGTDFTLKISRVEAEDVGVYYCSQNTHVPPTFGQGTKVEIERTVAAPSVFIFPPSDEQLKSGTASVVCLLNNFYPREAKVQWKVDNALQSGNSQESVTEQDSKDSTYSLSSTLTLSKADYEKHKVYACEVTHQGLSSPVTKSFNRGEC | 117 | 115 | 116 | 102 | 104
3 | GpH7-A5/GpH7-B3 variant I332_16H/GpL16-k0 (antibody, human IgG1, kappa, heterodimerized IgG1 (He Ab), mutation in one H chain only; also called He Ab) heavy 1: not shown heavy 2: not shown light: DIVMTQSPLSLPVTPGEPASISCQASESLVHSNRNTYLHWYLQKPGQSPQLLIYKVSNRFSGVPDRFSGSGSGTDFTLKISRVEAEDVGVYYCSQNTHVPPTFGQGTKVEIERTVAAPSVFIFPPSDEQLKSGTASVVCLLNNFYPREAKVQWKVDNALQSGNSQESVTEQDSKDSTYSLSSTLTLSKADYEKHKVYACEVTHQGLSSPVTKSFNRGEC | 97.6 | 113 | 89 | 103 | 100
4 | GpH7-A5/GpH7-B3 variant I332_10E/GpL16-k0 (antibody, human IgG1, kappa, heterodimerized IgG1 (He Ab), mutation in one H chain only; also called He Ab) heavy 1: not shown heavy 2: not shown light: DIVMTQSPLSLPVTPGEPASISCQASESLVHSNRNTYLHWYLQKPGQSPQLLIYKVSNRFSGVPDRFSGSGSGTDFTLKISRVEAEDVGVYYCSQNTHVPPTFGQGTKVEIERTVAAPSVFIFPPSDEQLKSGTASVVCLLNNFYPREAKVQWKVDNALQSGNSQESVTEQDSKDSTYSLSSTLTLSKADYEKHKVYACEVTHQGLSSPVTKSFNRGEC | 113 | 112 | 213 | 158 | 109
5 | GpH7-A5/GpH7-B3 variant I332_18N/GpL16-k0 (antibody, human IgG1, kappa, heterodimerized IgG1 (He Ab), mutation in one H chain only; also called He Ab) heavy 1: not shown heavy 2: not shown light: DIVMTQSPLSLPVTPGEPASISCQASESLVHSNRNTYLHWYLQKPGQSPQLLIYKVSNRFSGVPDRFSGSGSGTDFTLKISRVEAEDVGVYYCSQNTHVPPTFGQGTKVEIERTVAAPSVFIFPPSDEQLKSGTASVVCLLNNFYPREAKVQWKVDNALQSGNSQESVTEQDSKDSTYSLSSTLTLSKADYEKHKVYACEVTHQGLSSPVTKSFNRGEC | 98.3 | 114 | 84.9 | 99.6 | 99.3
6 | GpH7-A5/GpH7-B3 variant I336_02A/GpL16-k0 (antibody, human IgG1, kappa, heterodimerized IgG1 (He Ab), mutation in one H chain only; also called He Ab) heavy 1: not shown heavy 2: not shown light: DIVMTQSPLSLPVTPGEPASISCQASESLVHSNRNTYLHWYLQKPGQSPQLLIYKVSNRFSGVPDRFSGSGSGTDFTLKISRVEAEDVGVYYCSQNTHVPPTFGQGTKVEIERTVAAPSVFIFPPSDEQLKSGTASVVCLLNNFYPREAKVQWKVDNALQSGNSQESVTEQDSKDSTYSLSSTLTLSKADYEKHKVYACEVTHQGLSSPVTKSFNRGEC | 100 | 102 | 106 | 92.8 | 109
7 | GpH7-A5/GpH7-B3 variant I332_13S/GpL16-k0 (antibody, human IgG1, kappa, heterodimerized IgG1 (He Ab), mutation in one H chain only; also called He Ab) heavy 1: not shown heavy 2: not shown light: DIVMTQSPLSLPVTPGEPASISCQASESLVHSNRNTYLHWYLQKPGQSPQLLIYKVSNRFSGVPDRFSGSGSGTDFTLKISRVEAEDVGVYYCSQNTHVPPTFGQGTKVEIERTVAAPSVFIFPPSDEQLKSGTASVVCLLNNFYPREAKVQWKVDNALQSGNSQESVTEQDSKDSTYSLSSTLTLSKADYEKHKVYACEVTHQGLSSPVTKSFNRGEC | 97.9 | 113 | 95.6 | 109 | 97.3
8 | GpH7-A5/GpH7-B3 variant I332_19Q/GpL16-k0 (antibody, human IgG1, kappa, heterodimerized IgG1 (He Ab), mutation in one H chain only; also called He Ab) heavy 1: not shown heavy 2: not shown light: DIVMTQSPLSLPVTPGEPASISCQASESLVHSNRNTYLHWYLQKPGQSPQLLIYKVSNRFSGVPDRFSGSGSGTDFTLKISRVEAEDVGVYYCSQNTHVPPTFGQGTKVEIERTVAAPSVFIFPPSDEQLKSGTASVVCLLNNFYPREAKVQWKVDNALQSGNSQESVTEQDSKDSTYSLSSTLTLSKADYEKHKVYACEVTHQGLSSPVTKSFNRGEC | 95.1 | 112 | 101 | 104 | 103
9 | GpH7-A5/GpH7-B3 variant I336_01G/GpL16-k0 (antibody, human IgG1, kappa, heterodimerized IgG1 (He Ab), mutation in one H chain only; also called He Ab) heavy 1: not shown heavy 2: not shown light: DIVMTQSPLSLPVTPGEPASISCQASESLVHSNRNTYLHWYLQKPGQSPQLLIYKVSNRFSGVPDRFSGSGSGTDFTLKISRVEAEDVGVYYCSQNTHVPPTFGQGTKVEIERTVAAPSVFIFPPSDEQLKSGTASVVCLLNNFYPREAKVQWKVDNALQSGNSQESVTEQDSKDSTYSLSSTLTLSKADYEKHKVYACEVTHQGLSSPVTKSFNRGEC | 104 | 100 | 94.6 | 98.4 | 112
10 | GpH7-A5/GpH7-B3 variant I332_14T/GpL16-k0 (antibody, human IgG1, kappa, heterodimerized IgG1 (He Ab), mutation in one H chain only; also called He Ab) heavy 1: not shown heavy 2: not shown light: DIVMTQSPLSLPVTPGEPASISCQASESLVHSNRNTYLHWYLQKPGQSPQLLIYKVSNRFSGVPDRFSGSGSGTDFTLKISRVEAEDVGVYYCSQNTHVPPTFGQGTKVEIERTVAAPSVFIFPPSDEQLKSGTASVVCLLNNFYPREAKVQWKVDNALQSGNSQESVTEQDSKDSTYSLSSTLTLSKADYEKHKVYACEVTHQGLSSPVTKSFNRGEC | 104 | 119 | 110 | 118 | 104
11 | GpH7-A5/GpH7-B3 variant I332_12R/GpL16-k0 (antibody, human IgG1, kappa, heterodimerized IgG1 (He Ab), mutation in one H chain only; also called He Ab) heavy 1: not shown heavy 2: not shown light: DIVMTQSPLSLPVTPGEPASISCQASESLVHSNRNTYLHWYLQKPGQSPQLLIYKVSNRFSGVPDRFSGSGSGTDFTLKISRVEAEDVGVYYCSQNTHVPPTFGQGTKVEIERTVAAPSVFIFPPSDEQLKSGTASVVCLLNNFYPREAKVQWKVDNALQSGNSQESVTEQDSKDSTYSLSSTLTLSKADYEKHKVYACEVTHQGLSSPVTKSFNRGEC | 73.5 | 104 | 78.1 | 60.9 | 102
12 | GpH7-A5/GpH7-B3 variant I336_03V/GpL16-k0 (antibody, human IgG1, kappa, heterodimerized IgG1 (He Ab), mutation in one H chain only; also called He Ab) heavy 1: not shown heavy 2: not shown light: DIVMTQSPLSLPVTPGEPASISCQASESLVHSNRNTYLHWYLQKPGQSPQLLIYKVSNRFSGVPDRFSGSGSGTDFTLKISRVEAEDVGVYYCSQNTHVPPTFGQGTKVEIERTVAAPSVFIFPPSDEQLKSGTASVVCLLNNFYPREAKVQWKVDNALQSGNSQESVTEQDSKDSTYSLSSTLTLSKADYEKHKVYACEVTHQGLSSPVTKSFNRGEC | 104 | 106 | 107 | 98.7 | 108
13 | GpH7-A5/GpH7-B3 variant I332_15Y/GpL16-k0 (antibody, human IgG1, kappa, heterodimerized IgG1 (He Ab), mutation in one H chain only; also called He Ab) heavy 1: not shown heavy 2: not shown light: DIVMTQSPLSLPVTPGEPASISCQASESLVHSNRNTYLHWYLQKPGQSPQLLIYKVSNRFSGVPDRFSGSGSGTDFTLKISRVEAEDVGVYYCSQNTHVPPTFGQGTKVEIERTVAAPSVFIFPPSDEQLKSGTASVVCLLNNFYPREAKVQWKVDNALQSGNSQESVTEQDSKDSTYSLSSTLTLSKADYEKHKVYACEVTHQGLSSPVTKSFNRGEC | 109 | 119 | 92.4 | 112 | 101
